Laboratory results published in patent US20230357414A1 (SYNTHEKINE, published 2023).

T1: extracellular domain of mouse IL12Rb2 (614 amino acids, amino acids 24-637 of the mIL12Rb2 precursor, UniProt … (mouse, UniProt P97378 24-637))
T1 construct: also called mIL12Rb2 ECD; mIL12Rb2 ECD antigen
T1 sequence: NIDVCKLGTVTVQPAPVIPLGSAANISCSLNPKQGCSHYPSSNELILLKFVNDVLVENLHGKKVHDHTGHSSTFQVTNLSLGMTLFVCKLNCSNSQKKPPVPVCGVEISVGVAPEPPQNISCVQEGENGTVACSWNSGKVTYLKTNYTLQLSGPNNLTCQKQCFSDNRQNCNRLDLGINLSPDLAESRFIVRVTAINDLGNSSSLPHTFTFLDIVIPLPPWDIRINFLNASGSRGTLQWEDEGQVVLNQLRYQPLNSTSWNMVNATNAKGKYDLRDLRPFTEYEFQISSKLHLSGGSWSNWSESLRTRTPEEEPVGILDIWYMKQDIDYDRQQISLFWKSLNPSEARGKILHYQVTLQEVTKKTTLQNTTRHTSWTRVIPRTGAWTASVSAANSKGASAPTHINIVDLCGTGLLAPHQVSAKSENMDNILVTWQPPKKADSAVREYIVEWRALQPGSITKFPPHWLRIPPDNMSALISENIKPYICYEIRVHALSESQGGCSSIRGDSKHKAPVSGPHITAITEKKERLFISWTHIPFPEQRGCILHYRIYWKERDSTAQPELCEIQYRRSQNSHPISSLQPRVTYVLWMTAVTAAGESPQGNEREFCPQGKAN


Target: T1, extracellular domain of mouse IL12Rb2 …
Experiment: periplasmic extract ELISA on antigen-coated plate; positive if A450 at least threefold over PBS-coated control
Procedure: Upon completion of the biopanning of Example 3, three 96-well plates of individual phage clones were isolated in order to perform periplasmic extract ELISA (PE-ELISA) on IL12Rb2 coated plates to identify positive VHH binders that selectively bound IL12Rb2. A 96-well plate was coated with IL12Rb2 and PBS under the same conditions. Next, wells were blocked at 37° C. for 1 h. Then, 100 μl of extracted antibodies was added to each well and incubated for 1 h. Subsequently, 100 μl of anti-tag polyclonal antibody conjugated to HRP was added to each well and incubated at 37° C. for 1 h. Plates were developed with TMB substrate. The reaction was stopped by the addition of H2SO4. Absorbance at 450 nm was read on a microtiter plate reader. Antibodies with absorbance of the antigen-coated well at least threefold greater than PBS-coated control are VHHs that specifically bind to IL 12Rb2. Positive clones were sequenced, and sequences analyzed to identify unique clonotypes

Row | Binder | binding result
1 | mIL12Rb2 VHH14 (VHH, Camel VHH, tested as a periplasmic extract of a phage clone; also called anti-mouse IL12Rb2 VHH14; not shown: HA/His tag encoded by the pMECS phagemid) VHH: QVQLQESGGGSVQAGGSLRLSCAASGATNSNRHMGWFRQAPGKEREGVAAIYTGYTGGGNTYYADSVRDRFTISQDNAKNTLYLQMNSLTPEDTAMYYCAADLTRWYSGGWRDPRGYKYWGQGTQVTVSS | binds
2 | mIL12Rb2 VHH16 (VHH, Camel VHH, tested as a periplasmic extract of a phage clone; also called anti-mouse IL12Rb2 VHH16; not shown: HA/His tag encoded by the pMECS phagemid) VHH: QVQLQESGGGSVQAGGSLRLSCAASGATNSNRHMGWFRQAPGKEREGVAAIYTGYTGGGNTYYADSVKDRFTISQDNAKNTLYLQMNSLTPEDTAMYYCAADLTRWYSGGWRDPRGYKYWGQGTQVTVSS | binds
3 | mIL12Rb2 VHH15 (VHH, Camel VHH, tested as a periplasmic extract of a phage clone; also called anti-mouse IL12Rb2 VHH15; not shown: HA/His tag encoded by the pMECS phagemid) VHH: QVQLQESGGGSVQDGGSLRLSCAASGDIYARNCMGWFRQAPGKEREKIAVADTGGRSPYYADSVKGRFTISRDNAKNTVDLQMNSLKPEDTAVYYCAAGPLVPVVNTAARCVYEYWGQGTQVTVSS | binds
4 | mIL12Rb2 VHH10 (VHH, Camel VHH, tested as a periplasmic extract of a phage clone; also called anti-mouse IL12Rb2 VHH10; not shown: HA/His tag encoded by the pMECS phagemid) VHH: QVQLQESGGGSVQAGGSLRLSCAASGYTFSNHHMGWFRQAPGKEREGVAAIYTGAGNIYYADSVKDRFTISKDTAKNTLYLQMNSLTPEDTGMYYCAADLTRWYSGGWRDPRGYKYWGQGTQVTVSS | binds
5 | mIL12Rb2 VHH13 (VHH, Camel VHH, tested as a periplasmic extract of a phage clone; also called anti-mouse IL12Rb2 VHH13; not shown: HA/His tag encoded by the pMECS phagemid) VHH: QVQLQESGGGSVQAGGSLRLSCAVSGYTFSNHHMGWFRQAPGKEREGVAAIYTGAGNIYYADSVKDRFTISKDTAKNTLYLQMNSLTPEDTGMYYCAADLTRWYSGGWRDPRGYKYWGQGTQVTVSS | binds
6 | mIL12Rb2 VHH11 (VHH, Camel VHH, tested as a periplasmic extract of a phage clone; also called anti-mouse IL12Rb2 VHH11; not shown: HA/His tag encoded by the pMECS phagemid) VHH: QVQLQESGGGPVQAGGSLRLSCAASGYTFSNHHMGWFRQAPGKEREGVAAIYTGAGNIYYADSVKDRFTISKDTAKNTLYLQMNSLTPEDTGMYYCAADLTRWYSGGWRDPRGYKYWGQGTQVTVSS | binds
7 | mIL12Rb2 VHH12 (VHH, Camel VHH, tested as a periplasmic extract of a phage clone; also called anti-mouse IL12Rb2 VHH12; not shown: HA/His tag encoded by the pMECS phagemid) VHH: QVQLQESGGGVVQPGGSLRLSCAASGYTFSNHHMGWFRQAPGKEREGVAAIYTGAGNIYYADSVKDRFTISKDTAKNTLYLQMNSLTPEDTGMYYCAADLTRWYSGGWRDPRGYKYWGQGTQVTVSS | binds
